Measurements as given in US6613506B1, “Compositions and methods for inhibiting human immunodeficiency virus infection by down-regulating human cellular genes” (Subsidiary No. 3, Inc., priority 2000, dated 2003).

B1: CF-101: GSE, SEQ ID NO:3, sense; NADH dehydrogenase ND2 subunit gene (nucleic acid, listed as Homo sapiens)
sense: CATCAGCCCTTCTTAACATCTACTTCTACCTACGCCTAATCTACTCCACCTCAATCACACTACTCCCCATATCTAACAACGTAAAAATAAAATGACAGTTTGAGCATACAAAACCCACCCCATTCCTCCCCACACTCATCGCC
B2: CF-319: GSE, SEQ ID NO:2, sense; NADH dehydrogenase ND6 subunit gene (nucleic acid, listed as Homo sapiens)
sense: GATCCTCCCGAATCAACCCTGACCCCTCTCCTTCATAAATTATTCAGCTTCCTACACTATTAAAGTTTACCACAACCACCACGCCATCATACTCCTTCAC
B3: CF-315: GSE, SEQ ID NO:1, antisense; NADH dehydrogenase ND6 subunit gene (nucleic acid, listed as Homo sapiens)
antisense: AGATCCTATTGGTGCGTGGGCTTTGTATGATTATGGGCGTAGATTAGTAGTAGTTACTGGTTGAACATTGTTTGTTGGTGTATATATTGTAATTGGGATTGCTCGGGGGAATAGGTTATGTGATTAGGAGTAGGG
B4: CF-128: GSE, SEQ ID NO:6, sense; NADH dehydrogenase ND4 subunit gene (nucleic acid, listed as Homo sapiens)
sense: TCCTAGTCCTCACAATCATGGCAAGCCAGCGCCACTTATCCAGTGAACCACTATCACGAAAAAAACTCTACCTCTCTATACTAATCTCCCTACAAATCTCATTAATTATAATATTCACAACCACAGA
B5: CF-117: GSE, SEQ ID NO:4, antisense; NADH dehydrogenase ND6 subunit gene (nucleic acid, listed as Homo sapiens)
antisense: GTGAAAGAGTATGATGGGGTGGTGGTTGTCGTAAACTTTAATAGTGTAGGAAGCTGAATAATTTATAAAGGAGAGGGGACAGGGTTGATTCGGGAGGATC
B6: CF-061: GSE, SEQ ID NO:19; portion of an unknown human cellular gene (nucleic acid, listed as Homo sapiens)
DNA: ACACACAGACACACAGACACAGAGAGACACACAGACACACACACAGAGATACACAGAGACACAGACACAGAAACACTCTGAGAGACACACACACAGAGACACACAGACACACAGACACAGAGAGACACACAGACACACACACACAGAGATACACAGAGACACAGACACAGAAA
B7: CF-025: GSE, SEQ ID NO:5, antisense; NADH dehydrogenase ND2 subunit gene (nucleic acid, listed as Homo sapiens)
antisense: GAAGAAGCAGGCCGGATGTCAGAGGGGTGCCTTGGGTAACCTCTGGGACTCAGAAGTGAAAGGGGGCTATTCCTAGTTTTATTGCTATAGCCATTATGATTATTAATGATGAGTAT

Assays:
[1] = test system: latent HIV provirus in OM10.1 cells; experiment: Induction of latent HIV provirus by TNF-α in OM10.1 cells (CD4 retention, p24); format: cell-based, HIV-1
Experimental: In order to determine p24 expression in HIV-infected cells, the cells were first washed twice with Assay Buffer. About 10^6 cells were suspended in 100 μL Assay Buffer, mixed with 2 mL of Ortho PermeaFix Solution (available from Ortho Diagnostics), and incubated for 40 min. at room temperature. After centrifugation at 1200 rpm for 4 min. at 4EC, the cells were resuspended in 2 mL Wash Buffer (500 mL PBS, 25 mL fetal bovine serum, 1.5% bovine serum albumin and 0.0055% EDTA) for 10 min. at room temperature. After centrifugation, the cells were resuspended in 50 ΦL Wash Buffer and mixed with 1:500 dilution of an IgG2a antibody for 20 min. at 4EC, followed by incubation with 5-10 ΦL of anti-p24 antibody (KC57-FITC, available from Coulter) for 30 min. at 4EC. The cells were then washed twice with Wash Buffer and analyzed by flow cytometry.
(§1) One strategy selected for GSEs which suppressed productive infection of cells by HIV. The second strategy selected for GSEs which suppressed induction of the latent provirus in OM10.1 cells. When OM10.1 cells were treated with TNF-α and stained with an antibody specific for the cell surface molecule CD4, a rapid loss of CD4 expression was observed (FIG. 1). In contrast, the vast majority of the uninduced OM10.1 cells retained CD4 expression. It is believed that activation of the latent virus in OM10.1 cells by TNF-α leads to the production of viral protein gp120, which binds to cytoplasmic CD4, thereby preventing its translocation to the cell surface. A diminution of CD4^+ OM10.1 cells also correlates with an increased production of viral protein p24 in the cells following TNF-α induction.
OM10.1 cells were cultured in RPMI 1640 glucose-free media prior to and during incubation with NADH dehydrogenase inhibitors and TNF-á induction. The inhibitors were added to the cells followed by TNF-á induction 1-2 hours later. The expression of CD4 by the cells was assessed by anti-CD4 antibody staining and flow cytometry after 24 hour incubation at 37° C.

HIV = experiment: Selection of GSEs from RFE libraries using OM10.1 and CEM-ss cells (strategy not stated per GSE); format: cell-based, HIV-1; conditions: GSEs matching NADH dehydrogenase subunit genes
Experimental: (§2) The libraries prepared from HL-60 cells according to the method of Section A of this Example, were transfected into the packaging cell line, PA317 (ATCC CRL #9078), and converted into retrovirus for infection of OM10.1 cells. Libraries in pLNCX vector were co-cultured and selected with G418. Libraries in pLNGFRM vector were transduced by spinoculation (centrifugation of target cells at 1200×g for 90 min. in the presence of filtered retroviral supernatant; Dunn et al., 1999, Gene Therapy 6: 133-137) and selected by FACS sorting of the NGFR^+ population. After selection, the OM10.1 cells harboring the entire RFE library were induced with 10 U/mL of TNF-α at 37EC, and 24 hours later, were stained with an antibody and sorted for CD4 expression. Genomic DNA from the CD4^+ cells was purified and used for PCR amplification of inserts with the vector-derived primers. The amplified mixture was digested with EcoRI and BamHI and cloned back into the retroviral vector. The selection was repeated for additional rounds.
Additionally, a normalized RFE library made from HeLa cells was transferred into CEM-ss cells and the neo resistant population was infected with TCID50 of 3000/10^6 cells of HIV-1IIIB. This RFE library was represented by 50×10^6 independent recombinant clones. Four and seven days after infection, a purified anti-CD4 monoclonal antibody, L77 (available from Becton Dickinson), was added at 5 Φg/mL to prevent syncytia formation. Syncytia formation is thought to be prevented by blocking the interaction between gp120 expressed on the surface of an infected cell and CD4 on the surface of an uninfected cell. […] At 10-12 days after infection, CD4^+, p24^− cell population representing uninfected cells were sorted. Genomic DNA from the CD4^+, p24^− cells was purified and used for PCR amplification of inserts with the vector-derived primers. The amplified mixture was digested with EcoRI and BamHI and cloned back into the retroviral vector. The selection was repeated for additional rounds.
as §1
GSEs derived from cDNAs representing expressed human cellular genes were identified and isolated from a RFE library made from HL-60 cells using HIV provirus activation in OM10.1 cells as a read-out. Following transfection of the entire library into a packaging cell line, retrovirus carrying the library was used to infect OM10.1 cells by co-cultivation or spinoculation, and NGFR selection was performed to ensure the retention of the viral vector. When the infected cells were treated with TNF-α a small number of residual CD4^+ cells were detected by an anti-CD4 antibody and sorted by FACS. The GSEs contained in these cells were recovered by PCR amplification and their nucleotide sequences determined.
A total of twenty GSEs were isolated by the two aforementioned selection strategies using OM10.1 and CEM-ss cells. […] CF-315 was further shown to protect uninfected human T cells from a productive HIV-1 infection (FIG. 2). In this experiment, the retroviral vector, pLNGFRM, containing the CF-315 nucleic acid molecule was transferred into CEM-ss cells followed by NGFR selection. Vector containing plasmid DNA (denoted LNGFRM) was used as negative control. […]

HIV-1SF2 = experiment: Protection of GSE-transduced CEM-ss cells from HIV-1SF2 infection (intracellular p24); format: cell-based; conditions: HIV-1SF2 at TCID50 of 1000, versus vector (LNGFRM) control
Description: FIG. 2 illustrates the percentage of intracellular p24^+ CEM-ss cells containing the CF-315 sequence (SEQ ID NO:1) after infection with HIV-1SF2 at a TCID50 of 1000. CEM-ss cells (10^6) containing the C-315 construct or control vector DNA (denoted as LNGFRM) were harvested on the indicated days post infection, stained with FITC-conjugated anti-p24 monoclonal antibody and analyzed by flow cytometry. Mock infected cells, -⋄-; LNGFRM vector-infected cells, -[…]-; and C-315 infected cells, -Δ-.
FIG. 3 illustrates the percentage of intracellular p24^+ CEM-ss cells containing various GSEs: CF-004 (SEQ ID NO:7), CF-025 (SEQ ID NO:5), CF-113 (SEQ ID NO:8) and CF-204 (SEQ ID NO:9) after infection with HIV-1SF2 at a TCID50 of 1000. Controls include mock-infected, vector (LNGFRM)-infected and HIV-infected CEM-ss cells.
FIG. 4 illustrates the percentage of intracellular p24^+ CEM-ss cells containing CF-001 (SEQ ID NO:10) after infection with HIV-1SF2 at a TCID50 of 1000. Controls include mock-infected and vector (LNGFRM)-infected cells. […]
In order to determine p24 expression in HIV-infected cells, the cells were first washed twice with Assay Buffer. […] The cells were then washed twice with Wash Buffer and analyzed by flow cytometry. […]

[2] = test system: latent HIV-1 provirus in OM10.1 cells; experiment: Selection of GSEs in OM10.1 cells (TNF-α induction of latent provirus, CD4+ sorting); format: cell-based
Experimental: as §2, with “The amplified mixture was digested with EcoRI and BamHI and cloned back into the retroviral vector. The selection was repeated for additional rounds.” left out
GSEs derived from cDNAs representing expressed human cellular genes were identified and isolated from a RFE library made from HL-60 cells using HIV provirus activation in OM10.1 cells as a read-out. […] When the infected cells were treated with TNF-α a small number of residual CD4^+ cells were detected by an anti-CD4 antibody and sorted by FACS. The GSEs contained in these cells were recovered by PCR amplification and their nucleotide sequences determined.

Molecule	HIV-suppressive activity of the GSE and active orientation (HIV)	further results
CCC1(CCC(C)C)C(=O)NC(=O)NC1=O [amytal, Amytal]	–	inhibition of induction of latent HIV provirus (retention of CD4 expression) ([1]; TNF-α-induced OM10.1 cells, 24 hour incubation, FIG. 5 / FIG. 6): inhibited the induction of latent HIV provirus in OM10.1 cells in a dose-dependent manner; intracellular p24 levels ([1]; treated cells compared with untreated controls): suppressed intracellular p24 levels
B1	exhibits its HIV-suppressive activities in the sense orientation	–
B2	suppresses HIV replication in the sense orientation	–
B3	suppresses HIV replication as an antisense molecule	inhibition of productive HIV infection (intracellular p24+ cells) (HIV-1SF2): inhibited infection of human T cells by HIV-1SF2
B4	suppresses HIV infection in the sense orientation	–
B5	suppresses HIV activities as an antisense molecule	–
B6	–	selection of the GSE [2]: selected in OM10.1 cells
B7	suppresses HIV infection as an antisense molecule	–
